According to US20040126784:

Tested on: Histone H1

Pim1 K67A mutant fused to GFP with a myc tag, sequence (chain, as listed by the source K67A): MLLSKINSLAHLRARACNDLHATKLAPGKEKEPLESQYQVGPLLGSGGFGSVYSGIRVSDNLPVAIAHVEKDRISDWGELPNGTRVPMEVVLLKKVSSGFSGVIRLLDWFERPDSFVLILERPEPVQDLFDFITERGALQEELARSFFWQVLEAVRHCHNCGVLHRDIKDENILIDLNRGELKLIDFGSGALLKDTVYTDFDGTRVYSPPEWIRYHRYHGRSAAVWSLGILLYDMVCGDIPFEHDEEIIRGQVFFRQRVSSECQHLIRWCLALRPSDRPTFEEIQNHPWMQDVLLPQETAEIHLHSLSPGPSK
PIM1 D186N mutant fused to GFP with a myc tag, sequence (chain, as listed by the source D186N): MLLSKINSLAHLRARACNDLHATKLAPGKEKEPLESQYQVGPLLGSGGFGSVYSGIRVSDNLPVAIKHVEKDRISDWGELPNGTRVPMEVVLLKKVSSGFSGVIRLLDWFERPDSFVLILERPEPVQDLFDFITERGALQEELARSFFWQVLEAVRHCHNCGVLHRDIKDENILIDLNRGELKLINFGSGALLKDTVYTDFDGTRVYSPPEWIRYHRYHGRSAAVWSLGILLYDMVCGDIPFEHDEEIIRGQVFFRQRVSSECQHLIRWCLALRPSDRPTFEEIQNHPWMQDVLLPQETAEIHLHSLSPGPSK
wild type PIM1 fused to GFP with a myc tag, sequence (chain, as listed by the source): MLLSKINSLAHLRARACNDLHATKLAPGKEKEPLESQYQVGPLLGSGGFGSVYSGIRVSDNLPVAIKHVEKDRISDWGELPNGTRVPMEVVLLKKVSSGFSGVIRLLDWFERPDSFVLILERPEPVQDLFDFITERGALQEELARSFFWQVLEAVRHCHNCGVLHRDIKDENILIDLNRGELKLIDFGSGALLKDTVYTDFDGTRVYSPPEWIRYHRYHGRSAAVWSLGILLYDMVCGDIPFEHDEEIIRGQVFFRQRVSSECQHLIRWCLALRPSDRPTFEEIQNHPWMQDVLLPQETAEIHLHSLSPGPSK

| Substance | kinase activity (immune complex kinase assay, 32P-ATP) |
| --- | --- |
| PIM1 D186N mutant fused to GFP with a myc tag | Wild type PIM1 exhibited kinase activity, while the mutant PIM1 proteins did not. |
| Pim1 K67A mutant fused to GFP with a myc tag | Wild type PIM1 exhibited kinase activity, while the mutant PIM1 proteins did not. |
| wild type PIM1 fused to GFP with a myc tag | Wild type PIM1 exhibited kinase activity, while the mutant PIM1 proteins did not. |
